In PMC3279363:
Values joined by “and” are separate entries in the source; they are usually repeats but may differ in a detail not shown here. Equal entries are not always repeated.

Biological target: T1, nitrated major birch pollen allergen Bet v 1.0101 (Betula verrucosa), P15494
T1 chain: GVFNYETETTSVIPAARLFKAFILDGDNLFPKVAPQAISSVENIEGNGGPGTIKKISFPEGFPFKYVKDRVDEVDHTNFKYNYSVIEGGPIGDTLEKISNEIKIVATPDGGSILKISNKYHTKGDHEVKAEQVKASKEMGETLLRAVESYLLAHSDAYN
Assay: SEC + other: Western blot; data not shown; high performance size exclusion chromatography and Western blot analysis of Bet v 1 nitro
Conditions: remark: other sources report otherwise

stoichiometry N: 2 and 3
B1: nitrated major birch pollen allergen Bet v 1.0101, P15494 2-160 (natural protein)
chain: T1 chain
modifications: here or on the partner: nitrotyrosine: 58.1% of all tyrosine groups within one protein molecule were nitrated (tetranitromethane); all tyrosine residues nitrated to some extent; nitrotyrosine: 58.1% of all tyrosine groups within one protein molecule were nitrated (tetranitromethane); all tyrosine residues nitrated to some extent
